From patent publication US9327008B2, “Cell-permeant peptide-based inhibitor of kinases” (Purdue Research Foundation, priority 2008, dated 2016)

What was measured:
Type in all cases: biochemical
Rsk2 = biological target: T1, Rsk2 (Homo sapiens, UniProt P51812); assay: Millipore radiometric kinase activity assay, Rsk2 (h)
T1 construct: purchased Millipore (radiometric assay service)
Experimental: (§1) A commercial radiometric assay service (Millipore, Billerica, Mass.) was used to test the specificity and potency of peptides containing a coupled transduction domain and therapeutic domain, hereinafter “complete peptides”). In these assays, if the kinase is not inhibited by an inhibitor peptide, a positively charged substrate is phosphorylated with a radiolabeled phosphate group from an ATP.
(§2) In a final reaction volume of 25 μL, Rsk2 (h) (5-10 mU) is incubated with 8 mM MOPS pH 7.0, 0.2 mM EDTA, 30 μM […] [SEQ ID NO: 64], 10 mM MgAcetate and [γ-^33P-ATP] (specific activity approx. 500 cpm/pmol, concentration as required). The reaction is initiated by the addition of the MgATP mix. After incubation for 40 minutes at room temperature, the reaction is stopped by the addition of 5 μL it of a 3% phosphoric acid solution. 10 μL, of the reaction is then spotted onto a P30 filtermat and washed three times for 5 minutes in 75 mM phosphoric acid and once in methanol prior to drying and scintillation counting.
(§3) IC50 values for inhibitor peptides were determined using Millipore's IC50Profiler Express service. The IC50 value was estimated from a 10-point curve of one-half log dilutions. For peptides tested for specificity, the concentration of the peptides that inhibited approximately 95% of MK2 activity was chosen to profile against a battery of kinases related to MK2, cell viability, or human disease from MilliporeKinaseProfiler service. In both assays, compounds were supplied in dimethylsulfoxide (DMSO). Every kinase activity measurement was conducted in duplicate.
(§4) Therapeutic inhibitor peptides were assayed for activity against human kinases related to MK2, cell viability, or human disease. The assays were performed using concentrations of therapeutic inhibitor peptides that yielded 2% to 8% of normal MK2 activity. Error is reported as the standard deviation between 2 samples, and “c” is rat AMPK whereas all other kinases used are human kinases.

DYRK2 = biological target: T2, DYRK2 (Homo sapiens, UniProt Q92630); assay: Millipore radiometric kinase activity assay, DYRK2 (h)
T2 construct: purchased Millipore (assay service)
T2 sequence (Q92630 1-601): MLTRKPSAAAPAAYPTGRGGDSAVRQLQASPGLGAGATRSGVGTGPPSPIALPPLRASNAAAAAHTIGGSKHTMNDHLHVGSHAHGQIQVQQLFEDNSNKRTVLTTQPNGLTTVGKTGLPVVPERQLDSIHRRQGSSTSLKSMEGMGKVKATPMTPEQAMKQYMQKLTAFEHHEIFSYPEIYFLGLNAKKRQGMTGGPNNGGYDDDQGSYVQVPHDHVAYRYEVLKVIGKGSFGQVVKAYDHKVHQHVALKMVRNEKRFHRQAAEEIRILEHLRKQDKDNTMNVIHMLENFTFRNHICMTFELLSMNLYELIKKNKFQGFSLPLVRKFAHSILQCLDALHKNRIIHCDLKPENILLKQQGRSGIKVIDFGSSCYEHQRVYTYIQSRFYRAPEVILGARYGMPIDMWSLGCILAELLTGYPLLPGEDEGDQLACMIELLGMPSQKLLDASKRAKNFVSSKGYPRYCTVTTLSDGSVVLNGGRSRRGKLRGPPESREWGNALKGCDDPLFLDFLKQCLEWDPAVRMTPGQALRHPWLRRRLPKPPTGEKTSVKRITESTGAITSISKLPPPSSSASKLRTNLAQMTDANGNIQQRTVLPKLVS
Experimental: as §1
(§5) In a final reaction volume of 25 μL, DYRK2 (h) (5-10 mU) is incubated with 8 mM MOPS pH 7.0, 0.2 mM EDTA, 2 mg/mL casein, 10 mM MgAcetate and [γ-^33P-ATP] (specific activity approx. 500 cpm/pmol, concentration as required). The reaction is initiated by the addition of the MgATP mix. After incubation for 40 minutes at room temperature, the reaction is stopped by the addition of 5 μL, of a 3% phosphoric acid solution. 10 μL of the reaction is then spotted onto a P30 filtermat and washed three times for 5 minutes in 75 mM phosphoric acid and once in methanol prior to drying and scintillation counting.
as §3, §4

LIMK1 = biological target: T3, LIMK1 (Homo sapiens, UniProt P53667); assay: Millipore radiometric kinase activity assay, LIMK1 (h)
T3 construct: purchased Millipore (radiometric assay service)
T3 sequence (P53667 whole entry): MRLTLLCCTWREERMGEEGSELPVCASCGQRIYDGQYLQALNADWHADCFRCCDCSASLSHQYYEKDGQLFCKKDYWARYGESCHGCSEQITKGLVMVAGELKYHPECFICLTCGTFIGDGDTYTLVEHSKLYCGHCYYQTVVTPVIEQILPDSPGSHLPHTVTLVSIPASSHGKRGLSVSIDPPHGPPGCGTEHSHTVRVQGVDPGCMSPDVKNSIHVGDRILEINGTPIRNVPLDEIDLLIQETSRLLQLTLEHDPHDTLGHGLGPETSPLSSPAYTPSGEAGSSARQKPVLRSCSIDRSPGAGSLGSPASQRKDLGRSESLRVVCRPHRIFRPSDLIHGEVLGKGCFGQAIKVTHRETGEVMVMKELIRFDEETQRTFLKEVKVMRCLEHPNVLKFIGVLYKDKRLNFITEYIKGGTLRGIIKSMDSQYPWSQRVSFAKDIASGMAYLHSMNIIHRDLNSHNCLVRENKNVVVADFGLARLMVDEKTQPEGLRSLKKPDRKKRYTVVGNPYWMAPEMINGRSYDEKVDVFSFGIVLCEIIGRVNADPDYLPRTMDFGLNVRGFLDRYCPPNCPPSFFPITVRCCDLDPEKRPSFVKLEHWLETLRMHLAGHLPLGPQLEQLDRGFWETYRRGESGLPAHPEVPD
Experimental: as §1
as §5, with “25 μL, LIMK1 (h) (5-10” for “25 μL, DYRK2 (h) (5-10”, “mM EDTA, 0.6 mg/mL cofilin,” for “mM EDTA, 2 mg/mL casein,”, “0.6 mg/mL cofilin, 10 mM” for “2 mg/mL casein, 10 mM”, “of 5 μL of a” for “of 5 μL, of a”
as §3, §4

AMPK = assay: Millipore radiometric kinase activity assay, AMPK (r); details: rat AMPK
Experimental: as §1
In a final reaction volume of 25 AMPK (r) (5-10 mU) is incubated with 32 mM HEPES pH 7.4, 0.65 mM DTT, 0.012% Brij-35, 200 μM AMP, 200 μM […] [SEQ ID NO: 49], 10 mM MgAcetate and [γ-^33P-ATP] (specific activity approx. 500 cpm/pmol, concentration as required). The reaction is initiated by the addition of the MgATP mix. After incubation for 40 minutes at room temperature, the reaction is stopped by the addition of 5 μL of a 3% phosphoric acid solution. 10 μL of the reaction is then spotted onto a P30 filtermat and washed three times for 5 minutes in 75 mM phosphoric acid and once in methanol prior to drying and scintillation counting.
as §3, §4

Met = biological target: T4, Met (Homo sapiens, UniProt P08581); assay: Millipore radiometric kinase activity assay, Met (h)
T4 construct: purchased Millipore (radiometric assay service)
T4 sequence (P08581 25-1390): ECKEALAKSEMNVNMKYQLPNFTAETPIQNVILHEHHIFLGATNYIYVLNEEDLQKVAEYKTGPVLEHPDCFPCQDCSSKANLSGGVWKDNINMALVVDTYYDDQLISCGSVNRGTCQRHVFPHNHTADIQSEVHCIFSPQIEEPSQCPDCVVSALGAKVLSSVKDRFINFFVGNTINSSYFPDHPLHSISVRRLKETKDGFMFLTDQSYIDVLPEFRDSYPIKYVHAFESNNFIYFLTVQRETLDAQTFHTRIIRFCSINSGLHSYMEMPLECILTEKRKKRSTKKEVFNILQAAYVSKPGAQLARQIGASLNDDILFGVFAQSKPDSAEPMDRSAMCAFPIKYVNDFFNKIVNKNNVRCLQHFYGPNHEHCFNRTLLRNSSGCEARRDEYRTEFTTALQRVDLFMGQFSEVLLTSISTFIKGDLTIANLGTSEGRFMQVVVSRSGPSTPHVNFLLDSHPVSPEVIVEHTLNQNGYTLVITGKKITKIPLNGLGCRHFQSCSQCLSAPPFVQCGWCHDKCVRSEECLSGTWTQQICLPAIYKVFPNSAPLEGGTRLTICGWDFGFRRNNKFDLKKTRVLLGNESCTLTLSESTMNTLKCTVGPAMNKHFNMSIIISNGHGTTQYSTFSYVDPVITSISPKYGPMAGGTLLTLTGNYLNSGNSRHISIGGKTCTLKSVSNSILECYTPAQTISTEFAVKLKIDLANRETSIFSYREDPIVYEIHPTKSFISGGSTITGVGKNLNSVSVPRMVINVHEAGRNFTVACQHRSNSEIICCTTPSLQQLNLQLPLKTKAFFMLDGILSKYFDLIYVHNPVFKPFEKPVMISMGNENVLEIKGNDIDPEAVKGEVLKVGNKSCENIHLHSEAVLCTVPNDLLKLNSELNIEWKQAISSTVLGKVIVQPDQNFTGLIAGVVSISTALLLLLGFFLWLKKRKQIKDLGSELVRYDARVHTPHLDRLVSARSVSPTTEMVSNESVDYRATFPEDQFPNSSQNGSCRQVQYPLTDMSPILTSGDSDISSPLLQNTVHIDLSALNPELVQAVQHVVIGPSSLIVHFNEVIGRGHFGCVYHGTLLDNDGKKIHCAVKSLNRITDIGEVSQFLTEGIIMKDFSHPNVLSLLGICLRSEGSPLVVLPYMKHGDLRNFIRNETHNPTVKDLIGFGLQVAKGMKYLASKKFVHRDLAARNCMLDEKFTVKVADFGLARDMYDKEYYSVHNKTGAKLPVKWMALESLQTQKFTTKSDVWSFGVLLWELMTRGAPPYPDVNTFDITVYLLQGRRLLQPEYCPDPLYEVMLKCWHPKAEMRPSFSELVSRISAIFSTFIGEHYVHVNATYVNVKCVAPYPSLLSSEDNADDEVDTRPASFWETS
Experimental: as §1
as §2, with “μL, Met” for “μL, Rsk2”, “EDTA, 250” for “EDTA, 30”, “NO: 56],” for “NO: 64],”, “μL” for “μL it”, “10 μL” for “10 μL,”
as §3, §4

T1 sequence (P51812 whole entry): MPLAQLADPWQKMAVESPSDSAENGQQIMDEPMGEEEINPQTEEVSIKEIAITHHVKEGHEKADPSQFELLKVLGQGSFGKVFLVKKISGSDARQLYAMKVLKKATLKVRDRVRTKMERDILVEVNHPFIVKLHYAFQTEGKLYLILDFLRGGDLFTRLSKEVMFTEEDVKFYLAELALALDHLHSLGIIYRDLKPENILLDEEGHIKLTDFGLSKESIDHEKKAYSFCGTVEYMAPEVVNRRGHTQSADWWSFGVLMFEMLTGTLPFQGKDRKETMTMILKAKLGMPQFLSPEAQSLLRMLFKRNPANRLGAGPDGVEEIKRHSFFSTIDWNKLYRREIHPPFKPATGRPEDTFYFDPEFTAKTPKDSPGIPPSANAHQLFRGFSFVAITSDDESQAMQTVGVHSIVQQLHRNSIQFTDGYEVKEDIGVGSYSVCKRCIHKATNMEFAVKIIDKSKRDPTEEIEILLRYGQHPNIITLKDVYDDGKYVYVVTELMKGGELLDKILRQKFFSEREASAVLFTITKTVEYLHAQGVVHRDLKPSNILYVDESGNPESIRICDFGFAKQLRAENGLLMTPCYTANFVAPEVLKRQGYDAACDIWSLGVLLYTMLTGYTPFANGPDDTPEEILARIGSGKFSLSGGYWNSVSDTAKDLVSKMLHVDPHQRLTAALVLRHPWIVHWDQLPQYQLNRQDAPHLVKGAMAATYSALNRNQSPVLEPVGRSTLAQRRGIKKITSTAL

Sequence: KAFAKLAARLYRKALARQLGVAA
- Rsk2 Kinase Activity (%) (+SD %) (Rsk2; peptide 100 μM): 6 (1) %
- DYRK2 Kinase Activity (%) (+SD %) (DYRK2; peptide 100 μM): −10 (0) %
- LIMK1 Kinase Activity (%) (+SD %) (LIMK1; peptide 100 μM): 93 (3) %
- AMPK Kinase Activity (%) (+SD %) (AMPK; peptide 100 μM): 118 (7) %
- Met Kinase Activity (%) (+SD %) (Met; peptide 100 μM): 22 (3) %

Sequence: WLRRIKAWLRRIKALNRQLGVAA
- Rsk2 Kinase Activity (%) (+SD %) (Rsk2; peptide 30 μM): 14 (5) %
- Rsk2 Kinase Activity (%) (+SD %) (Rsk2; peptide 100 μM): −1 (1) %
- DYRK2 Kinase Activity (%) (+SD %) (DYRK2; peptide 30 μM): 93 (8) %
- DYRK2 Kinase Activity (%) (+SD %) (DYRK2; peptide 100 μM): −11 (1) %
- LIMK1 Kinase Activity (%) (+SD %) (LIMK1; peptide 30 μM): 89 (3) %
- LIMK1 Kinase Activity (%) (+SD %) (LIMK1; peptide 100 μM): 92 (2) %
- AMPK Kinase Activity (%) (+SD %) (AMPK; peptide 30 μM): 36 (4) %
- AMPK Kinase Activity (%) (+SD %) (AMPK; peptide 100 μM): 101 (6) %
- Met Kinase Activity (%) (+SD %) (Met; peptide 30 μM): 30 (1) %
- Met Kinase Activity (%) (+SD %) (Met; peptide 100 μM): 17 (3) %
